The text below walks through data of patent publication US20220236279A1 (published 2022).

No end group written: not given here.

One may read the IC50 as the concentration that gives 50% inhibition. Lower therefore signals inhibition by little substance.

For this assay, the target named is human atypical chemokine receptor 3 (ACKR3) (human, UniProt P25106 1-362). As to the kind of experiment: binding competition with CXCL12-AF647, flow cytometry. (In flow cytometry, cells or beads pass a laser one at a time.)
human atypical chemokine receptor 3 (ACKR3), sequence (P25106 whole entry): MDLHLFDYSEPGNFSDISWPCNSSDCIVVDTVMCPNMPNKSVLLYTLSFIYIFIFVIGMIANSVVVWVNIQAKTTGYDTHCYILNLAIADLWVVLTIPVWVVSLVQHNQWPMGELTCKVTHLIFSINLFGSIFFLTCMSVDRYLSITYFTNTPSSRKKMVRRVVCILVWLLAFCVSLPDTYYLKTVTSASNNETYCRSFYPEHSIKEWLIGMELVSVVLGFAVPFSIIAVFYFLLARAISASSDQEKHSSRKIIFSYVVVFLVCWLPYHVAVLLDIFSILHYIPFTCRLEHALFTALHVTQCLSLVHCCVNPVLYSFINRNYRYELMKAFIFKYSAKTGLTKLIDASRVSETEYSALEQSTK
Turning to H-FGGFMRRK-NH2 [LIH383, octapeptide FGGFMRRK (SEQ ID NO: 3; NH2-substituted at C-terminus)], the IC50 is 4 nM. Next, GGFLRRIRPKLKWDNQ [dynorphin 2-17 (SEQ ID NO: 19)]: 11100 nM.

As to YGGFLRRQFKVVT [dynorphin B], the IC50 was determined as 465 nM. Under YGGFMRRVGRPEWWMDYQKRYG [BAM22] stands 32.7 nM.

FGGFTGARKSARK-NH2 (also: reduced peptide bond ψ(CH2-NH) between Phe1 and Gly2) [Phe1ψ(CH2-NH)-Gly2-Nociceptin-1-13 amide (SEQ ID NO: 13; NH2-substituted at C-terminus)] gave an IC50 greater than 10000 nM. Under GGFLRRIRPKLK-NH2 [dynorphin 2-13 (SEQ ID NO: 20; NH2-substituted at C-terminus)] stands 20900 nM; under YGGFLRRIRPKLKWDNQ [dynorphin A], 82.7 nM. Next, YGGFMRRV-NH2 [adrenorphin, YGGFMRRV (SEQ ID NO: 32; NH2-substituted at C-terminus)]: 49 nM.
